Experimental data from patent US5500344A, “Serine protease and uses thereof” (The United States of America as represented by the …, priority 1992, dated 1996).
Starred links: 1 amine or outer side, 2 acyl side, 3 side chain; linkers in the order of their positions; H or OH if unused. Residues, ends and D or L forms follow the SMILES beside them. *: point of attachment. Suc = O=C(CCC(=O)[*:2])[*:1]; SBn = c1ccc(CS*)cc1

T1: Met-ase (Rattus norvegicus, UniProt Q03238)
T1 construct: endogenous in cells; host or cells: rat RNK-16 LGL leukemia cells, cytolytic granules, HPLC fraction 104
T1 sequence (Q03238 21-258 limits assumed): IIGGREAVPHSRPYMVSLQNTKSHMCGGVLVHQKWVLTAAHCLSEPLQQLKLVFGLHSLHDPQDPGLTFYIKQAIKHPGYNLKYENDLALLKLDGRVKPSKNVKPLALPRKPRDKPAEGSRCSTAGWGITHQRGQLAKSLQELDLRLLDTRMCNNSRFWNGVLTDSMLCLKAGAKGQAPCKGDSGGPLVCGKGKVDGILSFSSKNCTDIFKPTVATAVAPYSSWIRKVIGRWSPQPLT

T2: Asp-ase (Rattus norvegicus, UniProt P18291)
T2 construct: Asp-ase purified by HPLC as previously described; endogenous in cells; host or cells: rat RNK LGL leukemia cells, cytolytic granules, HPLC-purified (Sayers et al. 1992)
T2 sequence (P18291 21-248): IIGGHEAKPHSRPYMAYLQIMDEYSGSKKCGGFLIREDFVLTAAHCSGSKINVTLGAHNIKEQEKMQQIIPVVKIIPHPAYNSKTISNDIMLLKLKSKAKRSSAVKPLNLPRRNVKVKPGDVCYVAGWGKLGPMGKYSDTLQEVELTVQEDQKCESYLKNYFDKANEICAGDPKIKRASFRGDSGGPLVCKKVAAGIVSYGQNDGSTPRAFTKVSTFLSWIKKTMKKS

T3: Tryptase (Rattus norvegicus, UniProt P49864)
T3 construct: The BLT-esteraseactivity was found in fractions 49 and 56; endogenous in cells; host or cells: rat RNK-16 NK/LGL leukemia cells, cytolytic granules, HPLC fraction 56
T3 sequence (P49864 26-258): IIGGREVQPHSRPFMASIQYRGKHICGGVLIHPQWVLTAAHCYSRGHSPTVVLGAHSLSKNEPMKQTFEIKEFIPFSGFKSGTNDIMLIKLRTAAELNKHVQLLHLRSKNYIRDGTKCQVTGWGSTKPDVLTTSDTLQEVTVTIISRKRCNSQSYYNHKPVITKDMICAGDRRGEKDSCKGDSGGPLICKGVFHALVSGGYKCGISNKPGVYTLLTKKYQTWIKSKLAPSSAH

T4: Boc-Ala-Ala-Asp-SBzl
T4 sequence (peptide, N-terminal Boc; C-terminal thiobenzyl ester (SBzl)): AAD

T5: Boc-Ala-Ala-Met-SBzl
T5 sequence (peptide, N-terminal Boc; C-terminal thiobenzyl ester (SBzl)): AAM

T6: Boc-Ala-Ala-Ser-SBzl
T6 sequence (peptide, N-terminal Boc; C-terminal thiobenzyl ester (SBzl)): AAS

T7: Suc-Phe-Leu-Phe-SBzl
T7 sequence (peptide, N-terminal Suc; C-terminal thiobenzyl ester (SBzl)): FLF

T8: Boc-Ala-Ala-Leu-SBzl
T8 sequence (peptide, N-terminal Boc; C-terminal thiobenzyl ester (SBzl)): AAL

T9: Suc-Ala-Ala-Met-SBzl
T9 sequence (peptide, N-terminal Suc; C-terminal thiobenzyl ester (SBzl)): AAM


Tests used:
[1] = biological target: T1, Met-ase; assay: Initial rates of peptide thiobenzyl ester substrate hydrolysis by HPLC-purified Met-ase (HPLC fraction 104); format: biochemical; details: [S] 100-133 μM, pH 7.5, 25° C.
Experimental: (§1) Briefly, 50 μl of sample was added to 100 μl of 1 mM DTNB, made up in 10 mM Hepes, 1 mM CaCl2, 1 mM MgCl2, pH7.2. The reaction was initiated by the addition of 50 μl of BLT (Sigma) to give a final concentration of 500 μM. For Metase determinations, 50 μl of dilutions of the sample in 0.1M Hepes, 0.05M CaCl2, pH7.5 were added to 100 μl of 1 mM DTNB and the reaction was initiated by the addition of 50 μl of Boc-Ala-Ala-Met-S Benzyl (Bzl) to give a final concentration of 150 μM. The duration of the assay depended on color development, the rate of which was measured (0.D410) on a Dynatech MR 5000 microplate reader. Controls of sample and DTNB alone or DTNB and substrate alone were run. For more sensitive comparisons of enzymatic activities, peptide thiobenzyl ester substrates were used to measure protease activities. The chymase substrate Suc-Phe-Leu-Phe-SBzl was purchased from BACHEM Bioscience Inc., Philadelphia, Pa. […] Boc-Ala-Ala-Asp-SBzl is the substrate for Asp-ase and peptide thiobenzyl esters containing Met, Leu or Nle are substrates for Met-ase SP. […] The initial rates were measured at 324 nm using a Beckman 35 spectrophotometer when 10-25 μl of an enzyme stock solution was added to a cuvette containing 2.0 ml of buffer, 150 μl of 4,4'-dithiodipyridine and 25 μl of substrate. The same volume of substrate and 4,4'-dithiodipyridine were added to the reference cell in order to compensate for the background hydrolysis rate of the substrates. Initial rates were measured in duplicate for each substrate concentration and were averaged in each case.
(§2) 10 μl of enzyme solution was added to […]

[2] = biological target: T2, Asp-ase; assay: Initial rates of peptide thiobenzyl ester substrate hydrolysis by HPLC-purified Asp-ase; format: biochemical; details: 10 μl enzyme solution; [S] 100-133 μM; 0.1 M Hepes, 0.01 M CaCl2, pH 7.5, 8% Me2SO, 25° C.
Experimental: as §1, §2

[3] = biological target: T3, Tryptase; assay: Initial rates of peptide thiobenzyl ester substrate hydrolysis by HPLC-purified Tryptase (HPLC fraction 56); format: biochemical; details: [S] 100-133 μM, pH 7.5, 25° C.
Experimental: as §1, §2

[4] = biological target: T4, Boc-Ala-Ala-Asp-SBzl
[5] = biological target: T5, Boc-Ala-Ala-Met-SBzl
[6] = biological target: T6, Boc-Ala-Ala-Ser-SBzl
[7] = biological target: T7, Suc-Phe-Leu-Phe-SBzl
[8] = biological target: T8, Boc-Ala-Ala-Leu-SBzl
[9] = biological target: Boc-Ala-Ala-Nle-SBzl
[10] = biological target: T9, Suc-Ala-Ala-Met-SBzl
[11] = Met-ase activity of fractions on purification from RNK granules; format: biochemical, rat
Experimental: The protease of the present invention is purified to homogeneity sufficient to be sequenced and is at least about 90% pure. At this purity level, the protease has a Met-ase activity of about 156 nM/sec/μg without the intentional addition of other substances such as other proteins or carriers. The assay for measuring this activity was performed as described in the Experimental Details section. The specific activity, however, depends on the degeneracy and folding of the protease and may be as low as about 100 nM/sec/μg to as high as about 200 nM/sec/μg.
Assay of Proteases. Thiobenzylester substrates were used to measure protease activities. For monitoring enzyme activities from granules and column fractions, assays were performed at room temperature using 0.5 mM 5,5'-dithiobis-(2-nitrobenzoic acid) (DTNB) (Sigma) to detect the HSBzl leaving group (e410 =13600M-^-1 cm^-1).
BLT-esterase activity was estimated using a microtiter assay (Green, G. D. J., and Shaw, E. Anal. Biochem. 93:223-226 (1979)). Briefly, 50 μl of sample was added to 100 μl of 1 mM DTNB, made up in 10 mM Hepes, 1 mM CaCl2, 1 mM MgCl2, pH7.2. The reaction was initiated by the addition of 50 μl of BLT (Sigma) to give a final concentration of 500 μM. For Metase determinations, 50 μl of dilutions of the sample in 0.1M Hepes, 0.05M CaCl2, pH7.5 were added to 100 μl of 1 mM DTNB and the reaction was initiated by the addition of 50 μl of Boc-Ala-Ala-Met-S Benzyl (Bzl) to give a final concentration of 150 μM. The duration of the assay depended on color development, the rate of which was measured (0.D410) on a Dynatech MR 5000 microplate reader. Controls of sample and DTNB alone or DTNB and substrate alone were run. For more sensitive comparisons of enzymatic activities, peptide thiobenzyl ester substrates were used to measure protease activities. The chymase substrate Suc-Phe-Leu-Phe-SBzl was purchased from BACHEM Bioscience Inc., Philadelphia, Pa. Z-Arg-SBzl (the tryptase substrate, Kam, C-M., et al. J. Biol. Chem. 262:3444-3451 (1987)); Boc-Ala-Ala-AA-SBzl (AA=Asp, Met, Leu, Nle, or Ser) and Suc-Ala-Ala-Met-SBzl (Odake, S., et al. Biochemistry 30:2217-2227 (1991); Harper, J. W., et al. Biochemistry 23:2995-3002 (1984)) were synthesized previously. Boc-Ala-Ala-Asp-SBzl is the substrate for Asp-ase and peptide thiobenzyl esters containing Met, Leu or Nle are substrates for Met-ase SP. Assays were performed at room temperature in 0.1M, Hepes buffer, pH7.5, containing 0.01M CaCl2 and 8% Me2 SO using 0.34 mM 4,4'-dithiodipyridine (Aldrithiol-4, Aldrich Chemical Co., Milwaukee, Wis.) to detect HSBzl leaving group that reacts with 4,4'-dithiodipyridine to release thiopyridone (ε324=19800M^-1 cm^-1, Grasetti, D. R. and Murray, J. F. Arch. Biochem. Biophys. 119:41-49 (1967)). The initial rates were measured at 324 nm using a Beckman 35 spectrophotometer when 10-25 μl of an enzyme stock solution was added to a cuvette containing 2.0 ml of buffer, 150 μl of 4,4'-dithiodipyridine and 25 μl of substrate. The same volume of substrate and 4,4'-dithiodipyridine were added to the reference cell in order to compensate for the background hydrolysis rate of the substrates. Initial rates were measured in duplicate for each substrate concentration and were averaged in each case. Substrate concentrations were 100-133 μM.

[12] = 10 μl enzyme solution (HPLC fraction 56)
[13] = 10 μl enzyme solution (HPLC fraction 104)

Molecule	Initial Rates, Asp-ase [2] [nM/s]	Initial Rates, Tryptase [3, 12] [nM/s]	Initial Rates, Met-ase [1, 13] [nM/s]	Initial Rates [4] [nM/s]	Initial Rates [5] [nM/s]	Initial Rates [6] [nM/s]	Initial Rates [7] [nM/s]	also measured
CSCC[C@H](NC(=O)[C@H](C)NC(=O)[C@H](C)NC(=O)CCC(=O)O)C(=O)SCc1ccccc1 [Suc--Ala--Ala--Met--SBz1, Suc-Ala-Ala-Met-SBzl] (Suc-Ala-Ala-Met-SBn)	–	–	–	–	–	–	–	Initial Rates, Met-ase ([1]; 25 μl enzyme solution (HPLC fraction 104)): 10.1 nM/s
CC(C)C[C@H](NC(=O)[C@H](Cc1ccccc1)NC(=O)CCC(=O)O)C(=O)N[C@@H](Cc1ccccc1)C(=O)SCc1ccccc1 [Suc--Phe--Leu--Phe--SBz1, Suc-Phe-Leu-Phe-SBzl] (Suc-Phe-Leu-Phe-SBn)	0	0	0	–	–	–	–	–
N=C(N)NCCC[C@H](NC(=O)OCc1ccccc1)C(=O)SCc1ccccc1 [Z--Arg--SBz1, Z-Arg-SBzl]	0	22.7	0	–	–	–	–	Initial Rates, Tryptase ([3]; 25 μl enzyme solution (HPLC fraction 56)): 93.4 nM/s
Asp-ase (RNKP-1) (from UniProt P18291) (enzyme)	–	–	–	12.6	0	1.3	0	–
RNK-Met-1 (enzyme) IIGGREAVPHSRPYMVSLQNTKSHMCGGVLVHQKWVLTAAHCLSEPLQQLKLVFGLHSLHDPQDPGLTFYIKQAIKHPGYNLKYENDLALLKLDGRVKPSKNVKPLALPRKPRDKPAEGSRCSTAGWGITHQRGQLAKSLQELDLRLLDTRMCNNSRFWNGVLTDSMLCLKAGAKGQAPCKGDSGGPLVCGKGKVDGILSFSSKNCTDIFKPTVATAVAPYSSWIRKVIGRWSPQPLT	–	–	–	0	4.2	0	0	Initial Rates [8]: 2.9 nM/s; Initial Rates [9]: 3.9 nM/s; Initial Rates [10]: 10.1 nM/s; Increase in the specific activity on purification to homogeneity from the granule extract [11]: 29 fold; Rate ([11]; Met-ase rate, protein in assay 10, 3.4, 1.3, 0.1 μg by fraction): 17 nM/s; Specific Activity ([11]; Met-ase, purification step): 156.0 nM/sec/μg protein; Met-ase activity ([11]; protease at least about 90% pure, no added proteins or carriers): about 156 nM/sec/μg; Total ([11]; total Met-ase activity of the fraction): 2,807 nM/sec
